Test results as given in the nanobody polyreactivity screen of Harvey et al. (2022).

experiment: yeast display, Sf9 membrane polyspecificity reagent, FACS + sequencing; frameworks hold sequencing errors
Outline: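 Genes from sorted yeast were amplified by colony PCR, read by MiSeq 2 × 250 sequencing and filtered on CDR length. These cells carried a synthetic nanobody library in Saccharomyces cerevisiae BJ5465 and were sorted by FACS into low and high (top ~1%) gates on anti-HA and streptavidin fluorescence. Polyreactivity is labelled according to the gate of origin.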

| Sequence | polyreactivity (PSR sort gate) |
| --- | --- |
| QVQLVESGGGLVQAGGSLRLSCAASGRNILVYAMGWYRQAPGKERELVAAISSGGSTYYADSVKGRFTISRDNAKNTVYLQMNSLKPEDTAVYYCAAQFDVYYSRQPYDYNRSGYWGQGTQVTVSS | low polyreactivity |
| QVQLVESGGGLVQAGGSLRLSCAASGRNLLYYGMGWYRQAPGKERELVAVISRGGSTYYADSVKGRFTISRDNAKNTVYLQMNSLKPEDTAVYYCAKRIYYGGVATKSLMDYWGQGTQVTVSS | high polyreactivity |
| QVQLVESGGGLVQAGGSLRLSCAASGRNLRWYAMGWYRPAPGKERELVAAISTRSGSTYYADSVKGRFTISRDNAKNTVYLQMNSLKPEDTAVYYCAAQFWVKGQPQYGYLGQGTQVTVSS | high polyreactivity |
| QVQLVESGGGLVQAGGSLRLSCAASGRNLYYYAMGWYRQAPGKERELVAAITSGGSTYADSVKGRFTISRDNAKNTVYLQMNSLKPEDTAVYYCNARPVYGSRFYSAVRMEYWGQGTQVTVSS | low polyreactivity |
| QVQLVESGGGLVQAGGSLRLSCAASGRNSIYYALGWYRQAPGTDRELVAAITTTGSTKYADSVKGRFTISRDNAKKTVDLQMNSLKPEDTADYYCAARFSRWWVRYGYWGQATQVTVSS | high polyreactivity |
| QVQLVESGGGLVQAGGSLRLSCAASGRNYRYAMGWYRQAPGKEWALVAAISSGGRTNYADSVKGRFTISRDNAKNTVYLQMNSLKPEDTAVYYCAAEAPFYVKGRRYRGYDYWGQGTQVTVSS | high polyreactivity |
| QVQLVESGGGLVQAGGSLRLSCAASGRSFQDNAMGWYRQAPGKERELVAAISWRGGSTNYADSVKGRFTISRDNAKNTVYLQMNSLKPEDTAVYYCAKGIRRWYGGSDYWGQGTQVNVSS | low polyreactivity |
| QVQLVESGGGLVQAGGSLRLSCAASGRSFYVYAMGWYRQAPGMERELVATITRGGRTYYADSVKGRFTISRDNAKNTVYLQMNSLKPEDTAVSYCNDEDGSRRYRYEYWGHGTQVTVSS | high polyreactivity |
| QVQLVESGGGLVQAGGSLRLSCAASGRSFYYNAMGWYRQAPGKERELVAAIRSSGGTTYYADSVKGRFTISRDNAKNTVYLQMNSLKPEDTAVYYCAKDSNRYSYYSPYDSWGQGTQVTVSS | low polyreactivity |
| QVQLVESGGGLVQAGGSLRLSCAASGRSIYGYALGWYRQATRKERELVAAIHSGGSTYYADSVKGRFTISRDNAKNTVYLQKNSLKPEDTAVYYCAGYTAYRSRAYFYYWGQGTQVTVSS | high polyreactivity |
| QVQLVESGGGLVQAGGSLRLSCAASGRSLHHYAMGWYSQAPGKERELVAAIRWGGGSTYYADSVKGRFTISRDNAKNTVYLQMNSLNPEDPAVYSCAAEVVAGYDYSQYYYWGQGTQVTVST | low polyreactivity |
| QVQLVESGGGLVQAGGSLRLSCAASGRSLRGYAMGWYREAPGNEWVFVAAISSRGGSTYYADSVKGRLTLSRDNAKNTVYVQMNSLKPEDSAVYYCAAQWGRWYYGFNYRGQGTQVTVSS | high polyreactivity |
| QVQLVESGGGLVQAGGSLRLSCAASGRTAMGWYRHAPGKEREVVAAITGSGVSTYADSVKGRFTISRDNAKNTVYLQMNSLKPEDTAVYYCAADLPFVGGDYWGQGTQVYVSS | low polyreactivity |
| QVQLVESGGGLVQAGGSLRLSCAASGRTCAYNAMGWYRQAPGKERELVAAITDSDGNTYYADSVKGRFTISRDNAKNTVYLQMNSLKPEDTAVYYCAADYIILDHVTRGFGYEYWGQGTQVTVSS | low polyreactivity |
| QVQLVESGGGLVQAGGSLRLSCAASGRTCGSNVMGWYRQAPGKERELVAAISRSGGSTHYADSVKGRFTISRDKAKNSVYLQMKSLNPEDTAVYYCAARYSGGSAYGYGSLGQGTQVTVSS | high polyreactivity |
| QVQLVESGGGLVQAGGSLRLSCAASGRTCGYNAMGWYRQAPGKERELVAAISWSGTRSYYADSVKGRFTSSRDNAKNTVYLQMNSLKPEDTAVYYCAKRTLYGRTWSTSDYWGQGTQVTVSS | high polyreactivity |
| QVQLVESGGGLVQAGGSLRLSCAASGRTCKYYAMGWYRPAPGKEREEVAAINSGGITYYADSVKGRFTISRDNAKNTVYLQMNSLKPEDTAVYYCAKVWKIGVLRYPSYGYSYWGQGTQVTVSS | high polyreactivity |
| QVQLVESGGGLVQAGGSLRLSCAASGRTCYSYAMGWYRQAPGKVRALVAAITSSGSTNADSVKGRFTISRDNAKNTDYLQMNSLKPEDTAVYYCATRSYILGWRYDYWGQGTQVTVSS | high polyreactivity |
| QVQLVESGGGLVQAGGSLRLSCAASGRTCYYTMGWYRPAPGKDRELVAAITWSVDSTYYADSVKGRFTISRDNAKNTVYLHMNSLKPEVTAVYYCAVQPPPLNGLYDYWGQGTQVTVSS | low polyreactivity |
| QVQLVESGGGLVQAGGSLRLSCAASGRTDYRYAMGWYRQAPGKERELVAAISRSGGRTYYADSVKGRFTISRDNAKNTVYLQMNSQKPEDTAVYYCASRGLGSGPVVEGDYWGQGTQVTVSS | high polyreactivity |
| QVQLVESGGGLVQAGGSLRLSCAASGRTFAAYAMGWYRKAPGKEREFVADITYSGGSTTYADSVKGRFTISRDNAKNTVYLQMNSLKPEDTAVYDCIKLAYTRGWRGFVWYDYWGQGTQVTVSS | low polyreactivity |

| Sequence | polyreactivity (PSR sort gate) |
| --- | --- |
| QVQLVESGGGLVQAGGSLRLSCAASGRTFADHTMGWYRQAPGKERELVARINSGSSTYYADSVKGRFTISRDNAKNTVYLQMNSLKPEDTAVYYCAARGSDYIRWYVGGRYGYWGQGTQVTVSS | low polyreactivity |
| QVQLVESGGGLVQAGGSLRLSCAASGRTFADYAMGWYRQAPGKERELVAAISWRGGSTYYADSVKGRFTISRDNAKNTVYLQMNSLKPEDTAVYYCNKAYPADYDYWGQGTQVTVSS | low polyreactivity |
| QVQLVESGGGLVQAGGSLRLSCAASGRTFAFYAMGWYRPAPGKERDLVASISSSGDRTYYADSVKGRFTISRDNAKNTVYLQMNSLKPEDTAVYYCNRVEGGAYGSNFDYWGQATQVTVSS | high polyreactivity |
| QVQLVESGGGLVQAGGSLRLSCAASGRTFAFYTMGWYIQAPGKERELVAAITRTGSTSYADSVKGRFTISRDNAKNTVYLQMNSLKPEDTAVYFCASVGYPYTLWHQMDYWGQGTQVTVSS | low polyreactivity |
| QVQLVESGGGLVQAGGSLRLSCAASGRTFAGNAMGWYRPAPGTERELVADITRGGGSTYYADSVKGRFTISRDNAKNTVYLQMNSLKPEDTAVYYCAAATAFYYFISEYDYWGQGTQVTVSS | high polyreactivity |
| QVQLVESGGGLVQAGGSLRLSCAASGRTFAGNAMGWYRQAPGKERELVAAISQGGGSTYYADSVKGRFTISRDNAKNTVYLQMNSLKPEDTAVYYCAVDFRRYPGFDYWGQGTQVTVSS | low polyreactivity |
| QVQLVESGGGLVQAGGSLRLSCAASGRTFAGYAMGWYRQAPGKERELVAGISVDDSTTYYADSVKGRFTISRDNAKNTVYLQMNSLKPEDTAVYYCAAEREKTLYYLSRFDYWGQGTQVTVSS | low polyreactivity |
| QVQLVESGGGLVQAGGSLRLSCAASGRTFAGYAMGWYRQAPGKERELVAGITTSGGITYYADSVKGRFTISRDNAKNTVYLQMNSLKPEDTAVYYCNTGYYGRLRDDYWGQGTQVTVSS | high polyreactivity |
| QVQLVESGGGLVQAGGSLRLSCAASGRTFAIYVMGWYRQAPGKERELVAAISRGGSTYYADSVKGRFTISRDNAKNTVYLQMNSLKPEDTAVYYFAAGTGTTSRYYYWGQGTQVTVSS | high polyreactivity |
| QVQLVESGGGLVQAGGSLRLSCAASGRTFAIYVMGWYRQAPGKERELVAAITRVGSTYADSVKGRFTISRDNAKNTVYVQMNSLKPEDTAVYYCAAVSGVRSGPWRYDYWGQGTQVTVSS | high polyreactivity |
| QVQLVESGGGLVQAGGSLRLSCAASGRTFALNAMGWSRQAPGKERELVAAISWSSGRTYYADSVKGRFTISRDIAKNTVYLQMNSLKPEDTAVYYCAAYAQKRYYWGQGTQVTVSS | high polyreactivity |
| QVQLVESGGGLVQAGGSLRLSCAASGRTFALNAMGWYRQAPGKERELVADISYSGGSTYYADSVKGRFTISRDNAKNTVYLQMNSLKPEDTAVYYCAADSPWYVAYYYGYRVDYWGQGTQVTVSS | high polyreactivity |
| QVQLVESGGGLVQAGGSLRLSCAASGRTFALYAMGWYRQATGKERELVAAITWSGGSTYYADSVKGRFTISRDNAKNTVYLQMNSLKPEDTAVYYCAAQWPKSKYGYWGQGTQVTVSS | high polyreactivity |
| QVQLVESGGGLVQAGGSLRLSCAASGRTFANNVMGWYRQAPGKEREFVAAISRSGGITYYADSVKGRFTISRDNAKNTVYLQMNSLKPEDTAVYYCNAEWPFIYRLYRVQHGNDYWGQGTQVTVSS | low polyreactivity |
| QVQLVESGGGLVQAGGSLRLSCAASGRTFAPNAMGWYRQAPGKERELVAAISWSGTSTYYADSVKGRFTISRDNAKNTVYLQMNSLKPEDTAVYYCAPDLEGRVGSPWTYDYWGQGTQVTVSS | low polyreactivity |
| QVQLVESGGGLVQAGGSLRLSCAASGRTFAPYAMGWYRQAPGKERELVAAITYSGGSTYYADSVKGRFTISRDNAKNTVYLQMNSLKPEDTAVYYCAKVDSEYRQVIQQEDDYWGQGTQVTVSS | low polyreactivity |
| QVQLVESGGGLVQAGGSLRLSCAASGRTFAPYTMGWYRQAPGKERELVAAINFNGGGTYYADSVKGRFTISRDNAKNTVYLQMNSLKPEDTAVYYCYYLYNYWGQGTQVTVSS | low polyreactivity |
| QVQLVESGGGLVQAGGSLRLSCAASGRTFAQYTMGWYRQAPGKERELVAAISYRGSSTYYADSVKGRFTISRDNAKNTVYLQMNSLKPEDTAVYYCAVVYSIYTGGYDYWGQGTQVTVSS | high polyreactivity |
| QVQLVESGGGLVQAGGSLRLSCAASGRTFARNALGWYRQAPGKERELVAAITKGGGSTYYADSVKGRFTISRDNAKNTVYLQMNSLKPEDTAVYYCDAYKPSTRRYDYWGQGTQVTVSS | high polyreactivity |
| QVQLVESGGGLVQAGGSLRLSCAASGRTFARNAMGWYRQAPGKERELVASIRWRGGSTYYADSVKGRFTISRDNAKNTVYLQMNRLKPEDTAVYYCATRSPYYVGRGYISYDYWGQGTQVTVSS | high polyreactivity |
